The values that follow come from patent US7495116B2, “Phospholipid derivative” (NOF Corporation, priority 2002, dated 2009).

The nature of the data set: Determination of salt tolerant effect (clouding point, evaluation as surfactant). Type of data set: physicochemical. To be noted: 1 weight % solution in 5 weight % aqueous sodium sulfate. The procedure: As a result of the measurement, the clouding point was not detectable even when the temperature was raised up to 80° C.

With “monomethylpolyoxyethylenecarbamyl (Molecular Weight: 2000) distearoylphosphatidylethanolamine [Comparative Synthesis Example 1]”, the Clouding point was 50.0 °C.
